Tested on: MS2 coat protein
Test: apparent KD of MS2 coat protein; designed switch direction (-1 OFF switch, 1 ON switch): 1; higher = weaker reporter binding
In short: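 Designed RNA switches sharing common flanks were transcribed on Illumina chips by stalled E. coli RNA polymerase. They were titrated with SNAP-549-labelled MS2 coat protein, from 0.7 or 1.5 nM doubling to 3 µM, in Tris-HCl pH 7.5 buffer with KCl, MgCl2, BSA, DTT, tRNA and Tween-20. Titrations ran without input, with 200 uM small-molecule ligand, or with an oligonucleotide input. The apparent KD of each design is the median over its clusters, after curve-fitting of normalised cluster fluorescence.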

[1] = Eterna round: R95, input ligand: FMN 200 uM
[2] = Eterna round: R95, input ligand: microRNA oligo, concentration not stated
[3] = Eterna round: R95, input ligand: none
[4] = input ligand: microRNA oligo, concentration not stated

| Sequence | apparent KD of MS2 coat protein [1] | apparent KD of MS2 coat protein [2] | apparent KD of MS2 coat protein [3] | apparent KD of MS2 coat protein (input ligand: FMN 200 uM) | apparent KD of MS2 coat protein [4] | apparent KD of MS2 coat protein (input ligand: none) |
| --- | --- | --- | --- | --- | --- | --- |
| UCAAGCGUUUGGCUCGUCUUAUGUUUGGUACAUGAGGAUCACCCAUGUUAGGGACGAUCCAGUUAGAUGGAAUUUUG [JR_SHM208A_Sub036] (puzzle: Sensor for hsa-mir-208a) | 36.5 nM | 637 nM | 45.6 nM | – | – | – |
| UGGCUCAGACGAGGAUAUAUGUGAUCACAUGAGGAUCACCCAUGUCUCGAGCUUCGGCUCGAGACAUAGAAGGCGUCUGAGCCA [SSNG2/3-A2] (Eterna round: R96, puzzle: Same State NG 2) | – | – | – | 118 nM | 66.3 nM | 18.5 nM |
| GGUCCAUCAUGAGGAUAUGGCACCUUAUUGGUGCCAGAAGGCAUGUCUAUUAGACAUGAGGAUCACCCAUGUAUAAAUUGGACC [Eli NG1ss - 91] (Eterna round: R96, puzzle: Same State NG 1) | – | – | – | 108 nM | 192 nM | 1130 nM |
| UGUUUGUUGUGAGGAUAUACGUACACCUUACAUGAGGAUCACCCAUGUUGUUUCUUUGAUUGUUGGUAGAAGGCACUUGGUUAU [JR_SSNG2_Sub048] (Eterna round: R96, puzzle: Same State NG 2) | – | – | – | 324 nM | 123 nM | 208 nM |
| UAGUGCGUUAGAGGAUAUUCUAAAAAAAAAAAAAAGACAUGAGGAUCACCCAUGUAUGUACAUGGGAAGAAGGCUGAUGUGCUA [Omei SS(NG)2 B] (Eterna round: R96, puzzle: Same State NG 2) | – | – | – | 75.9 nM | 352 nM | 551 nM |
| AGCUUGUAACAUGAGGAUCACCCAUGUACAAGCUUUUUGCUCGUUUUACCCGGGCCCGGCGAUUACACGGGCCCGGG [Optimized Design] (puzzle: Sensor for hsa-mir-208a version 2) | 10.1 nM | 9.89 nM | 9.67 nM | – | – | – |
| AUAAGGCAAGCUUUUUUCUCGUAGUAUAAACAUGAGGAUCACCCAUGUGCCUACCCUGGAUCUUUGGAUCGCAGAAA [Ravebiat] (puzzle: Sensor for hsa-mir-208a) | 22.1 nM | 15.7 nM | 28.3 nM | – | – | – |
| AGUCCAGGCUGACCUGGACAAAAGCAUGUACAUGAGGAUCACCCAUGUCAUGUACAAGCUUUUUGCUCGUCUUAAAA [Mat - hsa-mir-208a - Mod of JL - D16] (puzzle: Sensor for hsa-mir-208a) | 701 nM | 14.3 nM | 637 nM | – | – | – |
| UUAAUAAUGAUAGGAUAUACAUGAGGAAUUCUCGUAGAAGGAUCAUGACAUGAGGAUCACCCAUGUAACGCUCGGAAGAGCGUA [Mat - Same State NG 1 - JL mod - D38] (Eterna round: R96, puzzle: Same State NG 1) | – | – | – | 846 nM | 236 nM | 909 nM |
| GACAAUCUAUCUGAGGAUAUCAUGAAGAAAACAUGAGGAUCACCCAUGUGCAGGAUAACUGCAAAUGAGAAGGCAGAUAGAUUGU [Mat - Same State 2 - Mod - D6] (puzzle: Same State 2) | 17.1 nM | 17.8 nM | 22.4 nM | – | – | – |
| AGUCCAGCCAGAGCUGGACAAAAGCAUGUACAUGAGGAUCACCCAUGUUCAUGUACAAGCUUUUUGCUCGUCUUAAU [Mat - hsa-mir-208a - Mod of JL - 59] (Eterna round: R96, puzzle: Sensor for hsa-mir-208a) | – | – | – | 620 nM | 15.3 nM | 583 nM |
| UGUUGUAUUACAGGAUAUCUAUUGAUUUUAUUUAGAGAAGGGUAUUCACAUGAGGAUCACCCAUGUAUAUACGAGGAAGUUGUG [JMF's solution 71] (Eterna round: R96, puzzle: Same State NG 1) | – | – | – | – | 41.5 nM | – |
| CUCAAACAUGAGGAUCACCCAUGUGUUGUCAUGGGAGGAUAUCCCAGUUCGUUGUAGUCGGGAGAAGGCCUAUGUC [× ×•×ª×• ×ž×“×™× ×” × ×—×ª-13] (puzzle: Same State 1) | – | 54.9 nM | – | – | – | – |
| UCGGGCGUACUUGCUGACAUGAGGAUCACCCAUGUAAAUGGGAAGGAUAUGGUUCCGUUUCGGUUCCAGAAGGUCCUGGGUGCU [salish99_SSNG3_r04_311] (Eterna round: R96, puzzle: Same State NG 3) | – | – | – | 886 nM | 1140 nM | 1180 nM |
| GAGUGACGAUUAGGAUAUACAGUGAUAAUGAUAGUAGAAGGAAUUGACAUGAGGAUCACCCAUGUAGGACUAAUCCAGAGAGAG [Parity 29 - Jieux - Same State NG 1] (Eterna round: R96, puzzle: Same State NG 1) | – | – | – | 86.5 nM | 39.9 nM | 57.8 nM |
| CAGAGCCCAUGGGCCUGACAUGAGGAUCACCCAUGUGGCUUUGAGGAUAUAAGCGGAAACACCGCUUAGAAGGCGAAGCCUAAC [Atxerati] (Eterna round: R96, puzzle: Same State NG 3) | – | – | – | 79.5 nM | 18.7 nM | 34.3 nM |
| AUAAUUAAUGCAGGAUAUGAUUAACAUGAGGAUCACCCAUGUGGUGUUGUGAGUAAGGAGAGUGAUCAGAAGGGCAUUUUUUUU [JMF's solution 33] (Eterna round: R96, puzzle: Same State NG 2) | – | – | – | 666 nM | 298 nM | 343 nM |
| AUUAAUAAUCUAGGAUAUCACGUCGAAUAGACGUGAGAAGGAGAUCAUAACAUGAGGAUCACCCAUGUAUUACAUGAAGUUAAU [SSNG1/7-B1] (Eterna round: R96, puzzle: Same State NG 1) | – | – | – | 27.5 nM | 29.9 nM | 34.8 nM |
| GAGUAGUUGAAAGGAUAUUGAUUAUUGUAGGAUCAAGAAGGUUUUAACAUGAGGAUCACCCAUGUAGGACUAUAAAUGUGAAAA [Parity 94 - Jieux - Same State NG 1] (Eterna round: R96, puzzle: Same State NG 1) | – | – | – | 12.2 nM | 10.1 nM | 15.6 nM |
| GUGGUCAGACAUGAGGAUCACCCAUGUGGAAUAAAUAAGGAACAGGAUAUCUAAUAUAGGAUAUAAGAGAAGGGUUGGUUGGUG (Eterna round: R96, puzzle: Same State NG 3) | – | – | – | – | 61.9 nM | – |
| GAGUGAUGGGUUAGUAACUGCUGGGAAGGACAUGAGGAUCACCCAUGUGAGUAGCGAGCUUGUGCUCGUCUUAUUAG [JR_SHM208A_Sub023] (puzzle: Sensor for hsa-mir-208a) | 207 nM | 114 nM | 379 nM | – | – | – |
| CUGAGCGAUCUAGGAUAUCACGUCGUUUAGACGUGAGAAGGAGAUCAUAACAUGAGGAUCACCCAUGUAUUACAUGAAGCUCAG [SSNG1/6-A3] (Eterna round: R96, puzzle: Same State NG 1) | – | – | – | 14.9 nM | 16.9 nM | 19.1 nM |
| AGUCCAGCCUGAGCUGGACAAAAGCAUGUACAUGAGGAUCACCCAUGUUCAUGUACUAGCUUUUUGCUCGUCUUGCC [salish99_208a_r3_108x] (puzzle: Sensor for hsa-mir-208a) | 157 nM | 14.8 nM | 163 nM | – | – | – |
| GAGAGAUGGCUAGGAUAUUCGGUGAUAAUGAUAGAAGAAGGAGCUGACAUGAGGAUCACCCAUGUGGGAAUAAUCCAGAGAGAG [Parity 19 - Jieux - Same State NG 1] (Eterna round: R96, puzzle: Same State NG 1) | – | – | – | 167 nM | 56.1 nM | 96.7 nM |
| GGUGGGUUACUACCCACACAUGAGGAUCACCCAUGUAUUGGGAAGGAUAUGGUGCCUGUGUGGUACCAGAAGGUCCUGGAGGUG [SS-NG3-LRO20] (Eterna round: R96, puzzle: Same State NG 3) | – | – | – | 1350 nM | 237 nM | 1590 nM |
| UUAAUUAAUUAAUUAUACAUGAGGAUCACCCAUGUAAGUGAUCAGGAUAUCAGCUCGAAUAGAGCUGAGAAGGGAUACAUGAAU [SSNG3/12-A1] (Eterna round: R96, puzzle: Same State NG 3) | – | – | – | – | 101 nM | – |
| UAUAAACAUGAGGAUCACCCAUGUAAUAAUAUGGGAGGAUAUCAGAAUGUAUGUAUGUAAUGAGAAGGCCUAAUAU [Mat - Same State 1 - Mod of Eli - D70] (puzzle: Same State 1) | 54.4 nM | 268 nM | 1270 nM | – | – | – |
